B1: RUPA-77 (antibody, V domains shown)
VH: QITLKESGPTLVKPTQTLTLTCSFSGFSLTTAGVAVAWIRQPPGQALEWLGIIYWNDDKRYNPSFQNRLTIAKDTSKNQVVLTMTNMDPVDTGTYYCAHRILAAYNYFDPWGQGTLVTVSS
VL: DIQMTQSPPSLSASVGDRVTITCRASQPINNFLNWYQQRPGKAPKLLIYAASRLQSGVPSRFSGSVSGTDFTLTISSLQQEDFAIYYCQQSYTSPLTFGGGTKVEIK
notes: human IgG1; source: recombinant human IgG1, 293T (Protein A purified) or GenScript
B2: RUPA-30 (antibody, V domains shown)
VH: QVQLVQSGAEVKKPGASVKVSCKASGYTFTTYFLHWVRQAPGQGLEWMGVIHPSGGSTTYAENFEGRVTMSRDTSTSTVYMELSSVRYEDTAVYYCARAGEYCRGIRCYIDGLDIWGQGTTVTVSS
VL: DIQMTQSPSSLSASVGDRVTITCRASQGIRNDLGWYQQKPGKAPKRLIYAASSLQSGVPSRFSGSGSGTEFTLTISSLQPEDFATYYCLQHNDSPWTFGQGTKVEIK
notes: as for B1
B3: RUPA-37 (antibody, V domains shown)
VH: QEQLVQSGAELRTPGATVKVSCKAPAYTFTTYFMHWVRQAPGRGFEWLGRINPSRGSTTYADKFQGRVTMTSDTSTTTVFMEVTNLRSEDTAVYYCARAGEYCRGIRCYVDGIDMWGQGTMITVSS
VL: B2 VL with V15I, K45Q, T85S, Y87F, D93S
notes: as for B1
B4: RUPA-26 (antibody, V domains shown)
VH: QVQLQQWGAGLLKPSETLSLTCLVNGGSFSDYYWSWIRQPPGRGLEWIGDVNHSGTTNHRPSLQSRVTLSLDMSKNQFSLKLTSVTAADTAVYFCARRSSGYYRGSRYTGWFDPWGQGTLVTVSS
VL: EIVLTQSPATLSVSPGERATLSCRASQTITRNLAWYQQKPGQAPRLLIYGASTRAPDIPARFSGSGSGTEFTLTISSLQSEDFALYYCQQYNNWPGLTFGGGTKVEIK
notes: as for B1
B5: RUPA-45 (antibody, V domains shown)
VH: B4 VH with K81R, R107H
VL: B4 VL
notes: as for B1
B6: RUPA-78 (antibody, V domains shown)
VH: EGQLLESGGDLVQPGGSLRLSCAASRFTFNTFAMTWVRQAPGKGLEWVSTISRSGSSTFYADSVKGRFTISRDNSKDTLYLQMNSLRAEDTALYSCAKFRTPRFSSSSGDALDLWGQGTMVTVSS
VL: EIVLTQSPGTLSLSPGERATLSCRASQSVSSSYFAWYQRRPGQAPRLVIDGASSRATGIPDRFSGSGSGTDFTLTISRLEPEDFAVYYCQQYGVSPGTFGQGTKLEIK
notes: as for B1
B7: RUPA-36 (antibody, V domains shown)
VH: QVQLQQWGAGLLKPSETLSLTCAVEGDSLGDYYWSWIRQPPGKGLEWIGDINHSGTTNYIPSLKSRVTISVDPSRKHFSLKLNFVTAADTATYFCARRASGWYRQSRYTGWFDPWGQGTLVTVSS
VL: EIVMTQSPATLSVSPGERATLSCRASHSINSNVAWYQQKPGQAPRLLIYGASTRATGIPARFSGSGSGTEFTLTISSLQTEDFAVYYCQQYNNWPGLSFGGGTKVEIK
notes: as for B1
B8: RUPA-46 (antibody, V domains shown)
VH: QVQLVQSGGGLVKPGGSLKLSCAASGFAFSDYYMHWIRQSPGKGLEWISYVSNSGNTIYYADSVKGRFTISRDNTKNSLFLQMNSLSADDTAVYYCARDRKGRNSETYYGALDVWGQGTTVTVST
VL: DIVMTQSLDSLAVSLGERATINCKSSQSVFSTYNNKNYLAWYQQKLGQPPKLLIYWASTRESGVPDRFSGSGSGTDFTLTISSLQAEDVAVYYCQQYYTTPTWTFGQGTKVEIK
notes: as for B1
B9: RUPA-90 (antibody, V domains shown)
VH: EVQLVESGGGLVQPGGSLRLSCAASGFMFSSYWMTWVRQAPGKGLEWVANIKEDGSEKYYVDSVKGRFTISRDNAENSLYLHMNSLRAADTAVYYCAREGDVFVAPSAVRKGGVYGMDVWGQGTTVTVSS
VL: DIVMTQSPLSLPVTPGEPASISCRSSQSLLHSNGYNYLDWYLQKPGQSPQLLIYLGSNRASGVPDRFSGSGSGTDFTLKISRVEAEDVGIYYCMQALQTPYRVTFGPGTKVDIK
notes: as for B1
B10: RUPA-105 (antibody, V domains shown)
VH: QVQLVQSGAEVKKPGASVKVSCTASGYNFLTHDISWVRQATGQGLEWMGWMNPNTGKKGYVQKFQGRVTMDRDMSKSTGYMELRSLTSEDTAVYYCVRGVGSYYGSGGWLDPWGQGTLVIVSS
VL: QSVLTQPPSASETPGQKVTISCSGSSSNIGSDTVSWYVQVPGTAPKLLIYNDNQRPSGVPDRFSGSKSGTSASLAISGLQSEDEADYYCATWDASLKRRVFGGGTTLTVL
notes: as for B1
B11: RUPA-111 (antibody, V domains shown)
VH: EVQLVESGGGLVQPGGSLRLSCVVSGFTFSRYSMYWVRQAPGKGPEWVSYIDSTGTTIYYADSVKGRFTISRDNAKSSLSLQMSSLRDDDRGVYYCARDGRKDSGSFLDHWGQGTLVIVSS
VL: DIQMTQSPSTLSASVGDRVTITCRASQSISEWLAWYQQKPGKAPRLLIYQASSLQSGVPSRFSGSGSGTEFTLTISSLQSDDFATYYCQQFDTYWTFGQGTKVEVR
notes: as for B1
B12: RUPA-88 (antibody, V domains shown)
VH: QVHLVQSGAEVKKPGASVKVSCKASGYNFLYHDITWVRQATGQGLEWLGWMNPNTGDTGYAQNFQGRVTMTRDMSRSTAYLELGSLRSEDTAVYYCARGVGSYHGSGGWLDPWGPGTLVIVSS
VL: QSVLTQPPSVSETPGQRVTISCSGSSSNIGLNTVNWYQQLPGTAPKLLIHNDNQRPSGVPDRFSGSKSGTSASLAISGLHSEDEADYYCATWDDSLKRRVFGGGTKLTVL
notes: as for B1
B13: RUPA-99 (antibody, V domains shown)
VH: B12 VH with L81M, G84D
VL: B12 VL with K46N
notes: as for B1
B14: RUPA-104 (antibody, V domains shown)
VH: QVQLVQSGAEVKKPGASVKISCKTSGYTFTNYDINWVRQATGRGLEWMGWINPNTGKTGFAQKFQGRVTMTRSTSISTAYMELSSLRSEDTAVYYCARGVTTPDYFDSWGQGTLVTVSS
VL: DIQMTQSPSSVSASVGDRVSITCRASQDISGWLAWYQQKPGKAPKLLIYAASTLRTGVPSRFSGSGSGTDFTLTISSLQPEDFATYYCLQANSLPVTFGQGTRLEIT
notes: as for B1
B15: RUPA-92 (antibody, V domains shown)
VH: QVQLVQSGAEVKKPGASVKVSCKASGYTFTSHDIIWVRQATGQGLEWMGWMNPNTGDKGYAQKFQGRVTMTRSMSISTAYMELRSLRSEDTAVYYCARGVGTYRGSGGWFDPWGPGTLITVSS
VL: QSALTQPRSVSGSPGQSVTISCTGTSGDVGGFNYVSWYQQHPGKTPRLMLYHVTKRPSGVPDRFSGSKSGNTASLTISGLQADDEADYYCCSYAGNYIEIFGGGTKLTVL
notes: as for B1
B16: RUPA-87 (antibody, V domains shown)
VH: QVQVVQSGAEVRKPGASVKVSCKTSGYTFIYYYIHWVRQAPGQGLEWLGWINPNSGGTKYAQQFQGRVTVTRDTSVSTAYMELNGLTSDDTAVYYCARVVAAEGYFDYWGQGTLLTVSS
VL: DIQMTQSPSSVSASVGDRVTITCRASQGISGWLAWYQQKPGKAPKLLIYAASTLQSGVPSRFSGSGSGTDFTLTISSLQPDDFATYFCQQANSFPLTFGGGTKISLK
notes: as for B1
B17: RUPA-108 (antibody, V domains shown)
VH: EVVLVESGGGLIQPGGSLRLSCAASGFTVSSSYMSWVRQAPGKGLEWVSVIYSGAGGGSIYYADSVKGRFTISRDNLKNTLYLQMNSLRVEDAAVYYCVRDSRGWGYFDDWGQGTLVTVSS
VL: EIILTQSPGTLSLSPGERATLSCRASQSIRTNYLAWYQRKPGQTPRLLIYGASSRATGIPDRFSGSGSGTDFTLTISRLEPEDFAEYFCQQYQNSPWTFGQGTIVEIK
notes: as for B1
B18: RUPA-91 (antibody, V domains shown)
VH: QVQLVQSGAEVKKIGASVKVSCKASGYTFTSHDIIWVRQAAGQGLEWMGWMNPNTGKKGYVEKFQGRVTLTRNMSTGTAYMELSSLRSDDTAVYYCARGVGTYHGSEGWLDPWGQGTLITVSS
VL: QSVLTQPPSASETPGQRVTISCSGSSSNVGSNSVNWYQQVPGTAPKLLIYNTNQRPSGVPARFSGSKSGTSASLAISGLHSEDEADYYCATWDGSLKKGVFGGGTKVTVL
notes: as for B1

These results are taken from PMC9942873 (Immunity, 2023).

Numbering of substitutions follows the chain as printed.

Chain of Pfs48/45 D2-3 (Q8I6T1 184-428): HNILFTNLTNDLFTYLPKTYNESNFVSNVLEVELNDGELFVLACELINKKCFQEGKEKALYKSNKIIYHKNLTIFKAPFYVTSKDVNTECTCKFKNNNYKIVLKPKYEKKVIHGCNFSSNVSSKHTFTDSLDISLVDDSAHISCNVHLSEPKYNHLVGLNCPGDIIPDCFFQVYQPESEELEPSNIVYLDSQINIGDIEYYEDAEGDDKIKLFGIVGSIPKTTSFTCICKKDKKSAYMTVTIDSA

The target of one assay is T1, Pfs48/45 D1-2 (Plasmodium falciparum 3D7, UniProt Q8I6T1). The experiment in a line: ELISA. To be noted: both partners purified. (ELISA stands for enzyme-linked immunosorbent assay.)
T1 sequence (Q8I6T1 28-289): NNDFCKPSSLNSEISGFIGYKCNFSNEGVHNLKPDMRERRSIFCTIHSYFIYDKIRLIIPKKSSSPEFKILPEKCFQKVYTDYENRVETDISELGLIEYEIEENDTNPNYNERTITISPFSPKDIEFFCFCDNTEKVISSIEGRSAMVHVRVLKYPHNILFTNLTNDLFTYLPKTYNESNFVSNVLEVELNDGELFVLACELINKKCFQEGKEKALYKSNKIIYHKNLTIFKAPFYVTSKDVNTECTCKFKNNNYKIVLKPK
Turning to B1, the binding result is “binds”.
Still for that read-out and setting: with B2 the entry was “binds”.
On the same count and under the same terms, for B3 the value was “binds”.
As to B4, the binding result is reported as “binds”.
On to B5, for which the binding result was “binds”.
Same read-out and setting: with B6 the entry was “binds”; with B7, “binds”.
On to B8, for which the binding result is on record as “binds”.

For the next assay, the target named is T2, recombinant full-length Pfs48/45 (Plasmodium falciparum 3D7, UniProt Q8I6T1). The experiment in a line: ELISA. The note with it: both partners purified.
T2 sequence (Q8I6T1 28-428): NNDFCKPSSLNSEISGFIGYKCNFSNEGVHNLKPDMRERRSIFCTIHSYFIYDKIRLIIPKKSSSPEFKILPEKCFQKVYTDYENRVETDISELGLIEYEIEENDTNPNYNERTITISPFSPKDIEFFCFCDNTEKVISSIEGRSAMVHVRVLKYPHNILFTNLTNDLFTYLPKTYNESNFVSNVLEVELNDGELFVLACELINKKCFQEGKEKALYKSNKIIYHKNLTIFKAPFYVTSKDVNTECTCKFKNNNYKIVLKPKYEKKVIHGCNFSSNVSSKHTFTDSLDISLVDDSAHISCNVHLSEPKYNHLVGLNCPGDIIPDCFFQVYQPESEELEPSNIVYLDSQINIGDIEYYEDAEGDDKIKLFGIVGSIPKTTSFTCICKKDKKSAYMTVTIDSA
As to B1, the binding result is recorded as “binds”.
Take B2: the binding result is listed as “binds”.
Consider B3, for which the binding result is recorded as “binds”.
For B4, the binding result is reported as “binds”.
Same read-out and setting: with B5 the entry was “binds”; with B6, “binds”; with B7, “binds”.
The same measure, in the same setting: for B8 the value was “binds”.

In another assay the target is T1, Pfs48/45 D1-2. The experiment in a line: ELISA. To be noted: both partners purified. The source holds these as a separate data set.
Turning to B9, the binding result was “binds”.
Take B10: the binding result is reported as “binds”.
On the same count and under the same terms, for B11 the value was “binds”; for B12, “binds”.
On to B13, for which the binding result is given as “binds”.
For the molecule B14, the binding result is recorded as “binds”.
B15: the binding result is on record as “binds”.
Take B16: the binding result is reported as “binds”.
On the same count and under the same terms, with B17 the entry was “binds”; with B18, “binds”.

The next assay concerns the target Pfs48/45 D2-3 (Plasmodium falciparum 3D7, UniProt Q8I6T1). The experiment in a line: ELISA. The note with it: both partners purified.
For the molecule B9, the binding result was “binds”.
The same measure, in the same setting: for B10 the value was “binds”; for B11, “binds”; for B12, “binds”.
The same measure, in the same setting: for B13 the value was “binds”; for B14, “binds”; for B15, “binds”.
Still for that read-out and setting: with B16 the entry was “binds”.
Consider B17, for which the binding result is “binds”.
On the same count and under the same terms, for B18 the value was “binds”.

The next assay concerns the target T2, recombinant full-length Pfs48/45. The experiment in a line: ELISA. The note with it: both partners purified. The source holds these as a separate data set.
On to B9, for which the binding result was “binds”.
The same measure, in the same setting: with B10 the entry was “binds”; with B11, “binds”.
Take B12: the binding result is given as “binds”.
Still for that read-out and setting: for B13 the value was “binds”; for B14, “binds”; for B15, “binds”.
As to B16, the binding result is on record as “binds”.
On the same count and under the same terms, for B17 the value was “binds”; for B18, “binds”.
